The target of assay [1] is human Claudin-6 (human) (UniProt P56747). Briefly: FACS, NEC8 cells (endogenous CLDN6).
Assay [2] deals with human Claudin-9 (human) (UniProt O95484). Put plainly: FACS, Claudin-9-HEK293 cells, 5 µg/ml. A general note: A flow cytometer gives signals particle by particle.
Assay [3] addresses human Claudin-3 (human) (UniProt O15551). Put plainly: FACS on Claudin-3-CHO-K1 cells, MFI relative to the isotype control.
In assay [4] the target is human Claudin-4 (human) (UniProt O14493). Briefly: FACS on Claudin-4-CHO-K1 cells, MFI relative to the isotype control.
Assay [5] deals with human Claudin-6 (human) (UniProt P56747). Briefly: cell-based or functional assay.
Assay [6] addresses human Claudin-9 (human) (UniProt O95484). Briefly: FACS dose response, Claudin-9-HEK293 cells.
For assay [7], the target named is human Claudin-6 (human) (UniProt P56747). Put plainly: FACS dose response, Claudin-6-HEK293 cells.
Assay [8] has the same target. Briefly: FACS dose response, Claudin-6-CHO cells.
Assay [9] concerns the target human Claudin-4 (human) (UniProt O14493). Put plainly: FACS on MCF7 cells, which endogenously express Claudin-3 and Claudin-4; MFI relative to the isotype control.
Assay [10] addresses human Claudin-3 (human) (UniProt O15551). The assay is described as above.
Assay [11] deals with human Claudin-6 (human) (UniProt P56747). Briefly: FACS, Claudin-6-CHO-K1 cells.
Assay [12] shares this target. Put plainly: FACS, OV90 cells (endogenous CLDN6).
In assay [13] the target is human Claudin-4 (human) (UniProt O14493). Briefly: FACS, Claudin-4-CHO-K1 cells.

Chain of human Claudin-3 (human) (O15551 whole entry): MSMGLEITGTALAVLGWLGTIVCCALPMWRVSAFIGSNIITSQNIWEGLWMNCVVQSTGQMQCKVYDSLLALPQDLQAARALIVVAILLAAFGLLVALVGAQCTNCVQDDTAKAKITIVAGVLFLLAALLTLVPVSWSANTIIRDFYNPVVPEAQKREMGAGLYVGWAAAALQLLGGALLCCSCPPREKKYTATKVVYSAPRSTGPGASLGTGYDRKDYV
Chain of human Claudin-6 (human) (P56747 whole entry): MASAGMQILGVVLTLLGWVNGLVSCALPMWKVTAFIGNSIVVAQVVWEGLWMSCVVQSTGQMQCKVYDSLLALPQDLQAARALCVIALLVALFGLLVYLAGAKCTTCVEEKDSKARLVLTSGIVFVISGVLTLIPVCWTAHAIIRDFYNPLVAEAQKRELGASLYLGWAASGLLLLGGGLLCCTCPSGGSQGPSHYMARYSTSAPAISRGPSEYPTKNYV
Chain of human Claudin-9 (human) (O95484 whole entry): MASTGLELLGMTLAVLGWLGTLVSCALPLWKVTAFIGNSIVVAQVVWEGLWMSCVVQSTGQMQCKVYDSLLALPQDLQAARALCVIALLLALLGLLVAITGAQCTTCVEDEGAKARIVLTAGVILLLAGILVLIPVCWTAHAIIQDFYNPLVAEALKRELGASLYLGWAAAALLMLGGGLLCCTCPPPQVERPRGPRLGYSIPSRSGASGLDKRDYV
Chain of human Claudin-4 (human) (O14493 whole entry): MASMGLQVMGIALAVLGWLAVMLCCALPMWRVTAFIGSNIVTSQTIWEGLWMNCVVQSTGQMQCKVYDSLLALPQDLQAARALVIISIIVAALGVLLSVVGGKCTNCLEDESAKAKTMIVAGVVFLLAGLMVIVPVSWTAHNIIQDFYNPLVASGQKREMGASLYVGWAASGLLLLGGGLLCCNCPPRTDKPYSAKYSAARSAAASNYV

B1: NR.N6.PC1 (antibody, from another filing, V domains shown)
VH: EVQLQQSGPELVKPGASMKISCKASGYSFTGYTMNWVKQSHGKNLEWIGLINPYNGGTIYNQKFKGKATLTVDKSSSTAYMELLSLTSEDSAVYYCARDYGFVLDYWGQGTTLTVSS
VL: QIVLTQSPSIMSVSPGEKVTITCSASSSVSYMHWFQQKPGTSPKLCIYSTSNLASGVPARFSGRGSGTSYSLTISRVAAEDAATYYCQQRSNYPPWTFGGGTKLEIK
Take B1: the fold MFI over isotype control with human Claudin-6 (human) [1] is 19 fold; with human Claudin-9 (human) [2] it was 15 fold; with human Claudin-3 (human) [3], 1.1 x; with human Claudin-4 (human) [4], 1.2 x; in the assay with human Claudin-4 (human) [9] it was 0.7 x; in the assay with human Claudin-3 (human) [10], 0.7 x. Besides, the fold MFI over isotype control with human Claudin-6 (human) [11] came out at 25 fold; in the assay with human Claudin-6 (human) [12], 20 fold. For the same molecule, in the assay with human Claudin-6 (human) [5], the endocytosis-mediated cytotoxicity (anti-hFc Fab-MMAF, CellTiter-Glo) on NEC8 cells, EC50 mean (St. Dev. 0.03) was found to be 0.05 nM. Besides, the endocytosis-mediated cytotoxicity on OV90 cells, EC50 with human Claudin-6 (human) [5] amounted to 1.96 nM. In addition, the values for the EC50 with human Claudin-9 (human) [6], with human Claudin-6 (human) [7] and with human Claudin-6 (human) [8] were 16.4 nM, 1.51 nM and 1.52 nM, respectively.

B2: NR.N6.PC2 (antibody, from another filing, V domains shown)
VH: QVQLVQSGAEVKKPGASVKVSCKASGYTFTSYWMNWVRQAPGQRLEWMGMIHPSDSEIRLNQKFKDRVTITRDTSASTAYMELSSLRSEDTAVYYCARIDSYYGYLFYFDYWGQGTTVTVSS
VL: DIVMTQSPDSLAVSLGERATINCRASQTVSTSSYSYMHWYQQKPGQPPKLLIYFASNVESGVPDRFSGSGSGTDFTLTISSLQAEDVAVYYCQHSWEIPWTFGQGTKLEIKR
For B2, the fold MFI over isotype control in the assay with human Claudin-6 (human) [1] was found to be 20 fold; with human Claudin-9 (human) [2], 32 fold; with human Claudin-3 (human) [3], 1.6 x; in the assay with human Claudin-4 (human) [9], 1 x; in the assay with human Claudin-3 (human) [10], 1 x; with human Claudin-6 (human) [11], 25 fold. Besides, the fold MFI over isotype control in the assay with human Claudin-6 (human) [12] is 15 fold; in the assay with human Claudin-4 (human) [13] it was 4.5 fold. In addition, the endocytosis-mediated cytotoxicity (anti-hFc Fab-MMAF, CellTiter-Glo) on NEC8 cells, EC50 mean (St. Dev. 0.04) with human Claudin-6 (human) [5] came out at 0.14 nM. The molecule further registered an endocytosis-mediated cytotoxicity on OV90 cells, EC50 in the assay with human Claudin-6 (human) [5] of 1.71 nM. Further, the EC50 – broadly, the concentration giving half of the maximal effect – worked out at 7.57 nM with human Claudin-9 (human) [6], 8.73 nM with human Claudin-6 (human) [7] and 24.5 nM in the assay with human Claudin-6 (human) [8].

Values taken from patent US20250277026A1.
